Sequences and labels used below:
B1: HA-FAT10 (natural protein, UniProt O15205 1-165, looked up)
chain: MAPNASCLCVHVRSEEWDLMTFDANPYDSVKKIKEHVRSKTKVPVQDQVLLLGSKILKPRRSLSSYGIDKEKTIHLTLKVVKPSDEELPLFLVESGDEAKRHLLQVRRSSSVAQVKAMIETKTGIIPETQIVTCNGKRLEDGKMMADYGIRKGNLLFLACYCIGG
notes: ubiquitin-like modifier FAT10; also called free FAT10; monomeric FAT10; source: SK-N-SH, transfected, in lysate
B2: NUB1-FLAG (NEDD8 ultimate buster-1) (natural protein)
chain: not shown
notes: NEDD8 ultimate buster-1 (NUB1), the shorter splice variant that lacks 14 amino acids in the second UBA domain of NUB1L; also called NUB1-p3XFLAG-CMV; source: SK-N-SH, transfected, in lysate

What all share (test): co-IP; SK-N-SH cells co-transfected; lysed in DM buffer (1% n-dodecyl-β-D-maltoside, 10 mM EDTA, protease inhibitors in PBS); 2 µl antibody 2 h at 4°C, Protein G Sepharose overnight at 4°C, 5 washes; western blot; with or without 50 µM MG132 for 4 h
Common to all, as to settings: partners not purified

In assay [1] the target is B2.
For assay [2], the target named is T1, Myc-AIPL1 (aryl hydrocarbon receptor interacting protein-like 1), wild type (UniProt Q9NZN9 1-384).
T1 construct: also called pCMV-Tag3C-AIPL1; WT AIPL1; source: SK-N-SH, transfected, in lysate
T1 sequence (looked up): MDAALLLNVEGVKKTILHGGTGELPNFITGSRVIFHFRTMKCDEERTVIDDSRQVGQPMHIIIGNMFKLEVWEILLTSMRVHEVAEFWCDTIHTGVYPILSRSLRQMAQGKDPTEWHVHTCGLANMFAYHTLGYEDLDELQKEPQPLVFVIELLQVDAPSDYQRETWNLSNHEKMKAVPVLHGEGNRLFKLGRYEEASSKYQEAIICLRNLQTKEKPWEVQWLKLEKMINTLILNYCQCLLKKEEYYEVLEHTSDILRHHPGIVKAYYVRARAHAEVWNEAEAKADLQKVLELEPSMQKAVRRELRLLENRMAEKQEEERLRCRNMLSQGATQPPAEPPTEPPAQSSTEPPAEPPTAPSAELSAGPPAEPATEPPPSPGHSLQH

The target of assay [3] is B1.

In the case of B1, the “fold increase of the co-precipitate with proteasome inhibitor over untreated cells” value in assay [1] was roughly 2 fold; in assay [2] it was roughly 5 fold.

B2: the “fold increase of the co-precipitate with MG132 over untreated cells” value in assay [3] is roughly 5 fold.

Source of the values: publication PMC3274541, “The Inherited Blindness Protein AIPL1 Regulates the Ubiquitin-Like FAT10 Pathway” (PLoS ONE, 2012).
